In article PMC3088644 one finds stoichiometry N data, which are given here for one substance.

The target in the experiment is mitochondrial ATP synthase (mouse (endogenous in MEFs)) (UniProt Q03265). The experiment is described as follows: native gel or EMSA.

In turn, “mitochondrial ATP synthase (from UniProt Q03265 44-553) (complex)” showed a stoichiometry N of 2.
